The results in this text go back to the supplement of paper PMC6379048.

Assay in all cases: Kd (EC50 corrected by depletion factor)
For data set [1], the target named is RPL7 (UniProt P18124). A digest of the protocol: (§1)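 Free RNA oligos (0 nM to 30 μM) competed for 1 h at 4°C in HEK293-FT lysate (2.5 mg protein/well) before a 30 min, 4°C pulldown with the same oligos on NHS-Sepharose beads. Bound proteins were quantified by label-free LC-MS/MS and normalised to the control. Kd was found by multiplying EC50, from a four-parameter log-logistic fit, by a protein-dependent depletion factor.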

For data set [2], the target named is T1, HNRNPA0 (UniProt Q13151).
T1 sequence: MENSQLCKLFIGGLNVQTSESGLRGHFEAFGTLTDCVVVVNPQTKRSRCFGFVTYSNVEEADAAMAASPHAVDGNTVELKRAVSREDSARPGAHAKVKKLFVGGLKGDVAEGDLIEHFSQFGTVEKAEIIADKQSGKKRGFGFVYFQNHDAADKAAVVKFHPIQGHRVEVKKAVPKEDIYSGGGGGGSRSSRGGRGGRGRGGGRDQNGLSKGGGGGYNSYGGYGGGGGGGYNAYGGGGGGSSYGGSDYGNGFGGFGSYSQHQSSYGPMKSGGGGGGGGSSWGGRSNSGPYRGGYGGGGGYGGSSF
A digest of the protocol:
as §1

Data set [3] deals with T2, DHX37 (UniProt Q8IY37).
T2 sequence: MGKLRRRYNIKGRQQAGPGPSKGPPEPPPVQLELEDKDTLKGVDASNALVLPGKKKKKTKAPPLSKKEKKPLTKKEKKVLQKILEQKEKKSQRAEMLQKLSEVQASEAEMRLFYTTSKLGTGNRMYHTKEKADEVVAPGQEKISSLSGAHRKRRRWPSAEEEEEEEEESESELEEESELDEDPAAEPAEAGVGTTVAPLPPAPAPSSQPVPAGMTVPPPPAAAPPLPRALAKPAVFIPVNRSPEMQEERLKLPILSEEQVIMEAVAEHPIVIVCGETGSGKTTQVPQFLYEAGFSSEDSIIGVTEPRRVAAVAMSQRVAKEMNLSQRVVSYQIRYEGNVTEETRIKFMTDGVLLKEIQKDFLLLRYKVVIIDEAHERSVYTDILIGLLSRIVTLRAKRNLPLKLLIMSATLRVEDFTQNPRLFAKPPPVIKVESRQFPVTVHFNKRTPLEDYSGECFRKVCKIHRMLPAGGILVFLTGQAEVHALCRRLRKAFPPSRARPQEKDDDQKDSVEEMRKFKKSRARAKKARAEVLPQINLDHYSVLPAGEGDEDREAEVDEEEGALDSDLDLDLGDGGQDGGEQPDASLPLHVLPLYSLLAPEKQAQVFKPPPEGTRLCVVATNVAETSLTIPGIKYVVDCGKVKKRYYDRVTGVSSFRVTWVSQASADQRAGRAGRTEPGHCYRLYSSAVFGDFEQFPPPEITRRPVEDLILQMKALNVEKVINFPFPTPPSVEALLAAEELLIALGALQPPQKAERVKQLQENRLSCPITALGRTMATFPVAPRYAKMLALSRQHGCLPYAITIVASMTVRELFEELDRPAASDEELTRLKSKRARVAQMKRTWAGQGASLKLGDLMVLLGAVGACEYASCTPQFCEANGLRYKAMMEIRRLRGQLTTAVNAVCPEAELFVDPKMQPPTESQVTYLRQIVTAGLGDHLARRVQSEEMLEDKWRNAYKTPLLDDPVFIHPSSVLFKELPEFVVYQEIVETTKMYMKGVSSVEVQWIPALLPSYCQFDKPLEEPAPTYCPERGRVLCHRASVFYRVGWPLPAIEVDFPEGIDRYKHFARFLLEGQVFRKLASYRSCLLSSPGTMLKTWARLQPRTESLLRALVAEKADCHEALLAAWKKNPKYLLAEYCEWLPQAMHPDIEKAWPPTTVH
In a few lines: as §1

Data set [4] has as its target ZNFX1 (UniProt Q9P2E3). In a few lines: as §1

Sequence of ZNFX1 (Q9P2E3 whole entry): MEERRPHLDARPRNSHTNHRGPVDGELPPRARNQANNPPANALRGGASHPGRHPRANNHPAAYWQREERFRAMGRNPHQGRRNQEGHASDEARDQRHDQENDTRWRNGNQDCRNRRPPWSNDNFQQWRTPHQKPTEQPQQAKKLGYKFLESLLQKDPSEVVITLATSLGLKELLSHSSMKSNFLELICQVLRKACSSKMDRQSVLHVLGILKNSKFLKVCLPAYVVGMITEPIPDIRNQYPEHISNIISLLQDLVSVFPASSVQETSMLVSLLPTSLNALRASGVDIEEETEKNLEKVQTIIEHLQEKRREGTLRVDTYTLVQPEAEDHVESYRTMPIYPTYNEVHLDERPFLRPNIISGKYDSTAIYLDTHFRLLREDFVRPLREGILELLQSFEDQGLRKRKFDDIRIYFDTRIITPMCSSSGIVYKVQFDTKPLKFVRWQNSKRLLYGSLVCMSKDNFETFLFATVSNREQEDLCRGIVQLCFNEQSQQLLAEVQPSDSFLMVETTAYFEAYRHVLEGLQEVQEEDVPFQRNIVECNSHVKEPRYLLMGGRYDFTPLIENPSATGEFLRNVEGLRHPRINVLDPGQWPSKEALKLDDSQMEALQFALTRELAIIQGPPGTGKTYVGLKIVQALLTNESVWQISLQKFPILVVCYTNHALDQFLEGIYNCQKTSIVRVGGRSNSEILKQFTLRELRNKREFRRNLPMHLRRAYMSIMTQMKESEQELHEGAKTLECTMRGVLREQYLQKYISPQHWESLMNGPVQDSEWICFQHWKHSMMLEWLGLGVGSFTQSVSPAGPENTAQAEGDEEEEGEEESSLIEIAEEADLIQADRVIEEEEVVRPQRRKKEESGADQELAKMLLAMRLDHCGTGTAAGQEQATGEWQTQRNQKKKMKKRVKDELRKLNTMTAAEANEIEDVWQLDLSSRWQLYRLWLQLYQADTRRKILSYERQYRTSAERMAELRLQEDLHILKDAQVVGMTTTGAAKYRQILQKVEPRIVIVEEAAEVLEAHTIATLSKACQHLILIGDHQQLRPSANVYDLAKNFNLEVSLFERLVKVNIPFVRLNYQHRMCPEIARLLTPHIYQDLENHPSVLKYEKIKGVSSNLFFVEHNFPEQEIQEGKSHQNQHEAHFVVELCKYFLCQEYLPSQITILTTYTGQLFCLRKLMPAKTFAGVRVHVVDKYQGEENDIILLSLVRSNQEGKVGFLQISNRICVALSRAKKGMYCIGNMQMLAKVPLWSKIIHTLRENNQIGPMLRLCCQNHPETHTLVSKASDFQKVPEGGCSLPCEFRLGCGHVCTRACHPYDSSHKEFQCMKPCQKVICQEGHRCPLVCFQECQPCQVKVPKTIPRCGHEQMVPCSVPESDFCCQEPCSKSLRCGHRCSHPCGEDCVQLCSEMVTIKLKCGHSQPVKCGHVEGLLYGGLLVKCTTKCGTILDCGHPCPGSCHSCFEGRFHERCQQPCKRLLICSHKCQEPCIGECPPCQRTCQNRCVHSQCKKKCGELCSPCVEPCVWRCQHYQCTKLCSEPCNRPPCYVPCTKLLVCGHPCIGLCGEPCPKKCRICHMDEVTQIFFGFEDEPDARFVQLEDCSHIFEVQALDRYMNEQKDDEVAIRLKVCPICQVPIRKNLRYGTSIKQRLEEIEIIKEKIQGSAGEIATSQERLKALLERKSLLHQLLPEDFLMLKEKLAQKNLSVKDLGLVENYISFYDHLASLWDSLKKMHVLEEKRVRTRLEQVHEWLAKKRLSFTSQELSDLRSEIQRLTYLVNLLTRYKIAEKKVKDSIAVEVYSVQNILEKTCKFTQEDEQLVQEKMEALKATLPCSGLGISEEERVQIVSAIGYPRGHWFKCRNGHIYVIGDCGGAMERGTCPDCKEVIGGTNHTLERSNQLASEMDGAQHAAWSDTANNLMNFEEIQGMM

Usually Kd stands for the equilibrium constant for the complex coming apart. In data set [1], AAUAAA gave a Kd of 3.96 µM.
On to UAUUUAU, for which the Kd was 3.2 µM in data set [2], 3.37 µM in data set [3] and 0.374 µM in data set [4].
